The results in this text go back to patent CN108264566A (SHANGHAI XINBAINUO BIOTECHNOLOGY CO LTD, dated 2018).

One assay has as its target T1, CD3-CD70BsM_M.
T1 construct: made in CHO-S cells; also called 单体形式的抗CD3/CD70双特异性分子
The assay is described as follows: ELISA, plate coated with 1 μg/ml CD27-hFc, binder titrated from 10 μg/ml. Background: In an ELISA, binding on a coated surface is turned into a signal by an enzyme label.

The next assay has as its target T2, CD3-CD70BsM_D.
T2 construct: Glycosylated, disulfide-linked homodimer through the IgD hinge linker; made in CHO-S cells; also called 二聚体形式的抗CD3/CD70双特异性分子
The assay is described as above.

The target in the next assay is T3, CD3-GITRL BsM_M.
T3 construct: made in CHO-S cells; also called 单体形式的抗CD3/GITRL双特异性分子
The assay is described as follows: ELISA, plate coated with 1 μg/ml GITR-hFc, binder titrated from 10 μg/ml.

In a further assay the target is T4, CD3-GITRL BsM_D.
T4 construct: Glycosylated, disulfide-linked homodimer through the IgD hinge linker; made in CHO-S cells; also called 二聚体形式的抗CD3/GITRL双特异性分子
Described as above.

The target in the next assay is T5, CD3-OX40L BsM_D.
T5 construct: Glycosylated, disulfide-linked homodimer through the IgD hinge linker; made in CHO-S cells; also called 二聚体形式的抗CD3/OX40L双特异性分子
The assay is described as follows: ELISA, plate coated with 1 μg/ml OX40-hFc, binder titrated from 10 μg/ml.

The next assay addresses T6, CD3-OX40L BsM_M.
T6 construct: made in CHO-S cells; also called 单体形式的抗CD3/OX40L双特异性分子
The description is as above.

The next assay addresses T7, CD3-B7RP-1BsM_M.
T7 construct: made in CHO-S cells; also called 单体形式的抗CD3/B7RP-1双特异性分子
The assay can be described thus: ELISA, plate coated with 1 μg/ml ICOS-hFc, binder titrated from 10 μg/ml.

A further assay concerns the target T8, CD3-B7RP-1BsM_D.
T8 construct: Glycosylated, disulfide-linked homodimer through the IgD hinge linker; made in CHO-S cells; also called 二聚体形式的抗CD3/B7RP-1双特异性分子
Described as above.

B1: 人类CD27-hFc融合蛋白 (Fc fusion)
chain: ATPAPKSCPERHYWAQGKLCCQMCEPGTFLVKDCDQHRKAAQCDPCIPGVSFSPDHHTRPHCESCRHCNSGLLVRNCTITANAECACRNGWQCRDKECTECDPLPNPSLTARSSQALSPHPQPTHLPYVSEMLEARTAGHMQTLADFRQLPARTLSTHWPPQRSLCSSDFIR
notes: Bought fusion protein; also called 重组蛋白CD27-hFc; not shown: human Fc (hFc) of the bought fusion protein
Take B1: the binding result with CD3-CD70BsM_M and with CD3-CD70BsM_D was “binds” in each case.

B2: 人类GITR-hFc融合蛋白 (Fc fusion)
chain: QRPTGGPGCGPGRLLLGTGTDARCCRVHTTRCCRDYPGEECCSEWDCMCVQPEFHCGDPCCTTCRHHPCPPGQGVQSQGKFSFGFQCIDCASGTFSGGHEGHCKPWTDCTQFGFLTVFPGNKTHNAVCVPGSPPAEP
notes: Bought fusion protein; also called 重组蛋白GITR-hFc; not shown: human Fc (hFc) of the bought fusion protein
Turning to B2, the binding result with CD3-GITRL BsM_M and with CD3-GITRL BsM_D was “binds” in each case.

B3: 人类OX40-hFc融合蛋白 (Fc fusion)
chain: LHCVGDTYPSNDRCCHECRPGNGMVSRCSRSQNTVCRPCGPGFYNDVVSSKPCKPCTWCNLRSGSERKQLCTATQDTVCRCRAGTQPLDSYKPGVDCAPCPPGHFSPGDNQACKPWTNCTLAGKHTLQPASNSSDAICEDRDPPATQPQETQGPPARPITVQPTEAWPRTSQGPSTRPVEVPGGRA
notes: Bought fusion protein; also called 重组蛋白OX40-hFc; not shown: human Fc (hFc) of the bought fusion protein
On to B3, for which the binding result with CD3-OX40L BsM_D and in the assay with CD3-OX40L BsM_M was “binds” in each case.

B4: 人类ICOS-hFc融合蛋白 (Fc fusion)
chain: EINGSANYEMFIFHNGGVQILCKYPDIVQQFKMQLLKGGQILCDLTKTKGSGNTVSIKSLKFCHSQLSNNSVSFFLYNLDHSHANYYFCNLSIFDPPPFKVTLTGGYLHIYESQLCCQLK
notes: Bought fusion protein; also called 重组蛋白ICOS-hFc; not shown: human Fc (hFc) of the bought fusion protein
Turning to B4, the binding result in the assay with CD3-B7RP-1BsM_M and in the assay with CD3-B7RP-1BsM_D was “binds” in each case.
